Measured values taken from patent publication US20250019438A1 (AstraZeneca / MedImmune, published 2025).

B1: EGFR-CD3 DuetMab with anti-CD3 variant AZ Vκ 29 + AZ VH SN75 (bispecific antibody, part only; not given: anti-EGFR arm, constant regions, V domains shown, not shown: another chain or arm of the molecule; a dimerising Fc or GST; small tags and cut ends)
VH: EVQLVESGGALVKPGGSLRLSCAASGFTFSNAWMHWVRQAPGKQLEWVAQIKDRSQTYATYYAESVKGRFTISRDDSKNTLYLQMNSLKTEDTAVYYCRGVYYANAPFDYWGQGTLVTVSS
VL: DIVMTQSPLSLPVTPGEPASISCRSSQSLVHNTGNTYLSWYLQKPGQSPQSLIYKVSNRASGVPDRFSGSGSGTDFTLKISRVEAEDVGVYYCGQGTQFPFTFGSGTKVEIK
B2: EGFR-CD3 DuetMab with anti-CD3 variant AZ Vκ 17 + AZ VH SN75 (bispecific antibody, part only; not given: anti-EGFR arm, constant regions, V domains shown, not shown: another chain or arm of the molecule; a dimerising Fc or GST; small tags and cut ends)
VH: EVQLVESGGALVKPGGSLRLSCAASGFTFSNAWMHWVRQAPGKQLEWVAQIKDRSQTYATYYAESVKGRFTISRDDSKNTLYLQMNSLKTEDTAVYYCRGVYYANAPFDYWGQGTLVTVSS
VL: DIVMTQSPLSLPVTPGEPASISCRSSQSLVHNTGNTYLSWYLQKPGQSPQSLIYKVSNRASGVPDRFSGSGSGTDFTLKISRVEAEDVGVYYCGQGTQAPFTFGSGTKVEIK
B3: EGFR-CD3 DuetMab with anti-CD3 variant AZ Vκ 17 + AZ VH E75 (bispecific antibody, part only; not given: anti-EGFR arm, constant regions, V domains shown, not shown: another chain or arm of the molecule; a dimerising Fc or GST; small tags and cut ends)
VH: EVQLVESGGALVKPGGSLRLSCAASGFTFTEAWMHWVRQAPGKQLEWVAQIKDRSQTYATYYAESVKGRFTISRDDSKNTLYLQMNSLKTEDTAVYYCRGVYYANAPFDYWGQGTLVTVSS
VL: DIVMTQSPLSLPVTPGEPASISCRSSQSLVHNTGNTYLSWYLQKPGQSPQSLIYKVSNRASGVPDRFSGSGSGTDFTLKISRVEAEDVGVYYCGQGTQAPFTFGSGTKVEIK
B4: EGFR-CD3 DuetMab with anti-CD3 variant AZ Vκ 29 + AZ VH SN82 (bispecific antibody, part only; not given: anti-EGFR arm, constant regions, V domains shown, not shown: another chain or arm of the molecule; a dimerising Fc or GST; small tags and cut ends)
VH: EVQLVESGGALVKPGGSLRLSCAASGFTFSNAWMHWVRQAPGKQLEWVAQIKDRSQTYATYYAESVKGRFTISRDDSKNTLYLQMNSLKTEDTAVYYCRGVYYANTPFDYWGQGTLVTVSS
VL: DIVMTQSPLSLPVTPGEPASISCRSSQSLVHNTGNTYLSWYLQKPGQSPQSLIYKVSNRASGVPDRFSGSGSGTDFTLKISRVEAEDVGVYYCGQGTQFPFTFGSGTKVEIK
B5: EGFR-CD3 DuetMab with anti-CD3 variant AZ Vκ 26 + AZ VH SN79 (bispecific antibody, part only; not given: anti-EGFR arm, constant regions, V domains shown, not shown: another chain or arm of the molecule; a dimerising Fc or GST; small tags and cut ends)
VH: EVQLVESGGALVKPGGSLRLSCAASGFTFSNAWMHWVRQAPGKQLEWVAQIKDRSQTYATYYAESVKGRFTISRDDSKNTLYLQMNSLKTEDTAVYYCRGVYYAVTPFDYWGQGTLVTVSS
VL: DIVMTQSPLSLPVTPGEPASISCRSSQSLVHNTGNTYLSWYLQKPGQSPQSLIYKVSNRASGVPDRFSGSGSGTDFTLKISRVEAEDVGVYYCGQGTQAPFSFGSGTKVEIK
B6: EGFR-CD3 DuetMab with anti-CD3 variant AZ Vκ 29 + AZ VH SN79 (bispecific antibody, part only; not given: anti-EGFR arm, constant regions, V domains shown, not shown: another chain or arm of the molecule; a dimerising Fc or GST; small tags and cut ends)
VH: EVQLVESGGALVKPGGSLRLSCAASGFTFSNAWMHWVRQAPGKQLEWVAQIKDRSQTYATYYAESVKGRFTISRDDSKNTLYLQMNSLKTEDTAVYYCRGVYYAVTPFDYWGQGTLVTVSS
VL: DIVMTQSPLSLPVTPGEPASISCRSSQSLVHNTGNTYLSWYLQKPGQSPQSLIYKVSNRASGVPDRFSGSGSGTDFTLKISRVEAEDVGVYYCGQGTQFPFTFGSGTKVEIK
B7: EGFR-CD3 DuetMab with anti-CD3 variant AZ Vκ 26 + AZ VH R79 (bispecific antibody, part only; not given: anti-EGFR arm, constant regions, V domains shown, not shown: another chain or arm of the molecule; a dimerising Fc or GST; small tags and cut ends)
VH: EVQLVESGGALVKPGGSLRLSCAASGFTFTRAWMHWVRQAPGKQLEWVAQIKDRSQTYATYYAESVKGRFTISRDDSKNTLYLQMNSLKTEDTAVYYCRGVYYAVTPFDYWGQGTLVTVSS
VL: DIVMTQSPLSLPVTPGEPASISCRSSQSLVHNTGNTYLSWYLQKPGQSPQSLIYKVSNRASGVPDRFSGSGSGTDFTLKISRVEAEDVGVYYCGQGTQAPFSFGSGTKVEIK
B8: EGFR-CD3 DuetMab with anti-CD3 variant AZ Vκ 17 + AZ VH R79 (bispecific antibody, part only; not given: anti-EGFR arm, constant regions, V domains shown, not shown: another chain or arm of the molecule; a dimerising Fc or GST; small tags and cut ends)
VH: EVQLVESGGALVKPGGSLRLSCAASGFTFTRAWMHWVRQAPGKQLEWVAQIKDRSQTYATYYAESVKGRFTISRDDSKNTLYLQMNSLKTEDTAVYYCRGVYYAVTPFDYWGQGTLVTVSS
VL: DIVMTQSPLSLPVTPGEPASISCRSSQSLVHNTGNTYLSWYLQKPGQSPQSLIYKVSNRASGVPDRFSGSGSGTDFTLKISRVEAEDVGVYYCGQGTQAPFTFGSGTKVEIK
B9: EGFR-CD3 DuetMab with anti-CD3 variant AZ Vκ 29 + AZ VH E75 (bispecific antibody, part only; not given: anti-EGFR arm, constant regions, V domains shown, not shown: another chain or arm of the molecule; a dimerising Fc or GST; small tags and cut ends)
VH: EVQLVESGGALVKPGGSLRLSCAASGFTFTEAWMHWVRQAPGKQLEWVAQIKDRSQTYATYYAESVKGRFTISRDDSKNTLYLQMNSLKTEDTAVYYCRGVYYANAPFDYWGQGTLVTVSS
VL: DIVMTQSPLSLPVTPGEPASISCRSSQSLVHNTGNTYLSWYLQKPGQSPQSLIYKVSNRASGVPDRFSGSGSGTDFTLKISRVEAEDVGVYYCGQGTQFPFTFGSGTKVEIK
B10: EGFR-CD3 DuetMab with anti-CD3 variant AZ Vκ 17 + AZ VH SN82 (bispecific antibody, part only; not given: anti-EGFR arm, constant regions, V domains shown, not shown: another chain or arm of the molecule; a dimerising Fc or GST; small tags and cut ends)
VH: EVQLVESGGALVKPGGSLRLSCAASGFTFSNAWMHWVRQAPGKQLEWVAQIKDRSQTYATYYAESVKGRFTISRDDSKNTLYLQMNSLKTEDTAVYYCRGVYYANTPFDYWGQGTLVTVSS
VL: DIVMTQSPLSLPVTPGEPASISCRSSQSLVHNTGNTYLSWYLQKPGQSPQSLIYKVSNRASGVPDRFSGSGSGTDFTLKISRVEAEDVGVYYCGQGTQAPFTFGSGTKVEIK

molecular target: Biotinylated recombinant human CD3εδ (Acro Biosystems, CDD-H82W6) (human) (UniProt P07766); assay: Octet BLI, biotinylated CD3εδ on streptavidin sensors, 1:1 model
Sequence (P07766 23-126, stated change not applied, chain 1 of 2): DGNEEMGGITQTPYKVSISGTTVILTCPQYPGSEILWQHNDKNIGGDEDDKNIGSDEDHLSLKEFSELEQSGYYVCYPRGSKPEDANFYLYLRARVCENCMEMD
Sequence (P04234 22-105, stated change not applied, chain 2 of 2, further chain): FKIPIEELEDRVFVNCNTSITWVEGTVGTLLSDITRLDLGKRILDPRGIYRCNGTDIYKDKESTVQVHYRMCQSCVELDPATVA

Row | Binder | Kd | koff | kon
1 | B1 | 1010 nM | 0.0282 s⁻¹ | 27900 M⁻¹ s⁻¹
2 | B2 | 853 nM | 0.00923 s⁻¹ | 10800 M⁻¹ s⁻¹
3 | B3 | 2790 nM | 0.0198 s⁻¹ | 7100 M⁻¹ s⁻¹
4 | B4 | 1860 nM | 0.0422 s⁻¹ | 22700 M⁻¹ s⁻¹
5 | B5 | 1930 nM | 0.0361 s⁻¹ | 18700 M⁻¹ s⁻¹
6 | B6 | 2670 nM | 0.114 s⁻¹ | 42800 M⁻¹ s⁻¹
7 | B7 | 712 nM | 0.0233 s⁻¹ | 32700 M⁻¹ s⁻¹
8 | B8 | 734 nM | 0.018 s⁻¹ | 24600 M⁻¹ s⁻¹
9 | B9 | 2220 nM | 0.0404 s⁻¹ | 18200 M⁻¹ s⁻¹
10 | B10 | 1640 nM | 0.0149 s⁻¹ | 9100 M⁻¹ s⁻¹
